The values that follow come from patent US20030119735.

Data set [1] deals with T1, 4′-Demethyl-4-[4″-aminoanilino-(succinimidopropionoyl)-(H-Cys-bAla-Arg-Arg-Met-Lys-Trp-Lys-Lys-NH2)]-epipodophyllotoxin.
T1 sequence: CRRMKWKK

The test system of data set [2] is T2, 4-[Succinimidopropionoyl-(H-Cys-βAla-Arg-Arg-Met-Lys-Trp-Lys-Lys-NH2)]epipodophyllotoxin.
T2 sequence: CRRMKWKK

For data set [3], the system named is T3, 4′-Demethyl-4-[acetyl-(H-Cys-βAla-Arg-Arg-Met-Lys-Trp-Lys-Lys-NH2)]epipodophyllotoxin.
T3 sequence: CRRMKWKK

Data set [4] concerns T4, 4-[Succinimidopropionoyl-(H-Cys-βAla-Arg-Arg-Met-Lys-Trp-Lys-Lys-NH2)]podophyllotoxin.
T4 sequence: CRRMKWKK

In data set [5] the test system is T5, H-βAla-Arg-Arg-Met-Lys-Trp-Lys-Lys-NH2.
T5 sequence: RRMKWKK

For “purified recombinant human topoisomerase II”, the “Activity observed (topoisomerase II cleavage and relaxation assays on plasmid DNA)” value was “I” in data set [1]; “IC” in data set [2]; “IC” in data set [3]; “-” in data set [4]; “-” in data set [5].
